How the values were obtained:
[1] = target: T1, Chp1 chromodomain (residues 15-75) for crystallization (S. pombe, UniProt Q10103 15-75); assay: crystal structure
T1 sequence (looked up): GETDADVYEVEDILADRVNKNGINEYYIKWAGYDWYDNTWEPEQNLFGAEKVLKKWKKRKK

[2] = target: T2, H3K9me3 peptide (isothermal titration calorimetry) (trimethyl-lysine at 9); assay: ITC
T2 chain: ARTKQTARKSTGGKAY

Swi6 V82E = target: T3, Swi6 V82E (S. pombe, UniProt P40381 1-328, V82E); assay: fluorescence polarisation
T3 sequence (looked up): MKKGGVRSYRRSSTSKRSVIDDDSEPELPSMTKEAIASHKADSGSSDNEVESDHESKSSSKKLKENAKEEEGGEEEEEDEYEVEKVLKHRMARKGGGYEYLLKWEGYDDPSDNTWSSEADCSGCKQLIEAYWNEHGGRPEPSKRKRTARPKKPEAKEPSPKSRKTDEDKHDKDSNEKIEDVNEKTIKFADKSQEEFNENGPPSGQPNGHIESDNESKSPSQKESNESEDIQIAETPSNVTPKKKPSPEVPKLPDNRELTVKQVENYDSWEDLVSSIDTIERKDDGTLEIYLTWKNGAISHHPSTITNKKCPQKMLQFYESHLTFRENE

[3] = target: Clr4 chromodomain (residues 1-70) (S. pombe, UniProt O60016 1-70); assay: fluorescence polarisation
[4] = target: T4, Swi6, full length, wild type (S. pombe, UniProt P40381 1-328); assay: fluorescence polarisation
T4 sequence (looked up): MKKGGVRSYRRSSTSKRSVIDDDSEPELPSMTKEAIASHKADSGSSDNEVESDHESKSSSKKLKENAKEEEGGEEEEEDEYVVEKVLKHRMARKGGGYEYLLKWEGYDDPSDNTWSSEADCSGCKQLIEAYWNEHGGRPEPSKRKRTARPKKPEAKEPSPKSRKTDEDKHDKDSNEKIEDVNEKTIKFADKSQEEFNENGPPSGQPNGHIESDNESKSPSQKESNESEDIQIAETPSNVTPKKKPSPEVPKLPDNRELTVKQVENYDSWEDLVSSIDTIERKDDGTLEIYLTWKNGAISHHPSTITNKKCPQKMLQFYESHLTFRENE

[5] = target: T5, Chp1 chromodomain E23V,V24M (S. pombe, UniProt Q10103 9-76, E23V | V24M); assay: fluorescence polarisation
T5 sequence (looked up): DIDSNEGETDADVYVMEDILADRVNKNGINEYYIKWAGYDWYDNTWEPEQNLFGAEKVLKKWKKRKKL

Swi6 E80V V82E = target: T6, Swi6 E80V V82E (S. pombe, UniProt P40381 1-328, E80V | V82E); assay: fluorescence polarisation
T6 sequence (looked up): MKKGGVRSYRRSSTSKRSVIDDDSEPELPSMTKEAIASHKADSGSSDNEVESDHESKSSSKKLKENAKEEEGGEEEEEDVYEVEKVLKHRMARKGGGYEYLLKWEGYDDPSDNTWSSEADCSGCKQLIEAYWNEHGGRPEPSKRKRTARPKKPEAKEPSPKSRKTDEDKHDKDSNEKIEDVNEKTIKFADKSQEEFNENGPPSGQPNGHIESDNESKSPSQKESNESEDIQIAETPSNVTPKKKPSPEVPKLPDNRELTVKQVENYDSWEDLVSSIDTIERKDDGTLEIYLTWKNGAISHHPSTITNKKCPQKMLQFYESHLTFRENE

Sequence of Clr4 chromodomain (residues 1-70) (O60016 1-70): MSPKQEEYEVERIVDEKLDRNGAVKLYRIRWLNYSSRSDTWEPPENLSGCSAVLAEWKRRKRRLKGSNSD

B1: H3K9me3 peptide (crystallization) (peptide)
peptide: ARTKQTARKSTGGKAY
modifications: trimethyl-lysine at 9
binding result [1]: binds

B2: Chp1 chromodomain, wild type (for binding studies) (domain or fragment, S. pombe, UniProt Q10103 9-76, looked up)
chain: DIDSNEGETDADVYEVEDILADRVNKNGINEYYIKWAGYDWYDNTWEPEQNLFGAEKVLKKWKKRKKL
fold higher affinity than Swi6 [2]: ≥ 5 fold

B3: H3K9me3 peptide (fluorescence polarization) (peptide)
chain: ARTKQTARKSTGGKAY
modifications: trimethyl-lysine at 9
Kd (Swi6 V82E): 1.04 ± 0.1 µM
Kd [3]: 0.6 ± 0.08 µM
Kd [4]: 3.34 ± 0.55 µM
Kd [5]: 14.7 µM
Kd (Swi6 E80V V82E): 0.61 ± 0.12 µM

B4: fluorescein labeled H3K9me2 peptide (peptide)
chain: ARTKQTARKSTGGKAY
modifications: dimethyl-lysine at 9; fluorescein (position not given)
Kd (Swi6 V82E): 2.19 ± 0.13 µM
Kd [3]: 2.86 ± 0.27 µM
Kd [4]: 10.3 ± 1.69 µM
Kd (Swi6 E80V V82E): 1.07 ± 0.03 µM
